Test results from the supplement of paper PMC12783771.
± gives the standard deviation of the averaged measurements.

B1: library; numbered along this chain (parent)
chain: MNIQIGELAKRTACPVVTIRFYEQEGLLPPPGRSRGNFRLYGEEHVERLQFIRHCRSLDMPLSDVRTLLSYRKRPDQDCGEVNMLLDEHIRQVESRIGALLELKHHLVELREACSGARPAQSCGILQGLSDCVCDTRGTTAHPSD

What was measured:
[1] = variants of: B1; test: sfGFP reporter fluorescence (15 h) (µM FITC); higher = higher leak; conditions: library round: Round 0; ligand: none
In short: (§1)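 Values are endpoint sfGFP fluorescence given as µM FITC equivalents. Fluorescence was read at 485/528 nm on a Synergy Neo2, and FITC standard curves were prepared in 50 mM sodium borate pH 8.5. Reactions of 1 μL combined BL21 Star (DE3) PANOx-SP extract, pPbrR-sfGFP reporter, 30 μg/mL GamS and linear PbrR templates (PCR-made, Echo-normalized to 5 nM), with 1 µM lead chloride, 30 µM zinc acetate or no metal, for 15 hr at 30 °C.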

[2] = variants of: B1; test: sfGFP reporter fluorescence (15 h) (µM FITC); higher = stronger transcriptional activation; conditions: library round: Round 0
In short: as §1

Variant: C134D
- sfGFP reporter fluorescence [1]: 0.06157 ± 0.00052
- sfGFP reporter fluorescence ([2]; ligand: 1 µM Pb): 0.0684 ± 0.0018
- sfGFP reporter fluorescence ([2]; ligand: 30 µM Zn): 1.004 ± 0.008

Variant: C134L
- sfGFP reporter fluorescence [1]: 0.0673 ± 0.00078
- sfGFP reporter fluorescence ([2]; ligand: 1 µM Pb): 0.113 ± 0.012
- sfGFP reporter fluorescence ([2]; ligand: 30 µM Zn): 1.3 ± 0.054

Variant: C134E
- sfGFP reporter fluorescence [1]: 0.0608 ± 0.001
- sfGFP reporter fluorescence ([2]; ligand: 1 µM Pb): 0.0651 ± 0.0034
- sfGFP reporter fluorescence ([2]; ligand: 30 µM Zn): 0.929 ± 0.095

Variant: C134S
- sfGFP reporter fluorescence [1]: 0.06597 ± 0.00052
- sfGFP reporter fluorescence ([2]; ligand: 1 µM Pb): 0.0814 ± 0.0036
- sfGFP reporter fluorescence ([2]; ligand: 30 µM Zn): 1.22 ± 0.1

Variant: C134A
- sfGFP reporter fluorescence [1]: 0.0652 ± 0.001
- sfGFP reporter fluorescence ([2]; ligand: 1 µM Pb): 0.0821 ± 0.0052
- sfGFP reporter fluorescence ([2]; ligand: 30 µM Zn): 0.59 ± 0.049

Variant: C134T
- sfGFP reporter fluorescence [1]: 0.06542 ± 0.00026
- sfGFP reporter fluorescence ([2]; ligand: 1 µM Pb): 0.0823 ± 0.0049
- sfGFP reporter fluorescence ([2]; ligand: 30 µM Zn): 1.21 ± 0.096

Variant: C134Y
- sfGFP reporter fluorescence [1]: 0.072 ± 0.0034
- sfGFP reporter fluorescence ([2]; ligand: 1 µM Pb): 0.154 ± 0.012
- sfGFP reporter fluorescence ([2]; ligand: 30 µM Zn): 1.49 ± 0.19

Variant: C134R
- sfGFP reporter fluorescence [1]: 0.0731 ± 0.0023
- sfGFP reporter fluorescence ([2]; ligand: 1 µM Pb): 0.0993 ± 0.0042
- sfGFP reporter fluorescence ([2]; ligand: 30 µM Zn): 1.66 ± 0.018

Variant: C134N
- sfGFP reporter fluorescence [1]: 0.06505 ± 0.00026
- sfGFP reporter fluorescence ([2]; ligand: 1 µM Pb): 0.081 ± 0.0031
- sfGFP reporter fluorescence ([2]; ligand: 30 µM Zn): 1.39 ± 0.12

Variant: C134V
- sfGFP reporter fluorescence [1]: 0.0667 ± 0.00052
- sfGFP reporter fluorescence ([2]; ligand: 1 µM Pb): 0.0894 ± 0.0047
- sfGFP reporter fluorescence ([2]; ligand: 30 µM Zn): 1.13 ± 0.25

Variant: C134H
- sfGFP reporter fluorescence [1]: 0.0645
- sfGFP reporter fluorescence ([2]; ligand: 1 µM Pb): 0.0913 ± 0.0042
- sfGFP reporter fluorescence ([2]; ligand: 30 µM Zn): 1.05 ± 0.012

Variant: C134P
- sfGFP reporter fluorescence [1]: 0.0667 ± 0.00052
- sfGFP reporter fluorescence ([2]; ligand: 1 µM Pb): 0.0847 ± 0.011
- sfGFP reporter fluorescence ([2]; ligand: 30 µM Zn): 1.54 ± 0.058

Variant: C134W
- sfGFP reporter fluorescence [1]: 0.145 ± 0.0042
- sfGFP reporter fluorescence ([2]; ligand: 1 µM Pb): 0.4695 ± 0.0031
- sfGFP reporter fluorescence ([2]; ligand: 30 µM Zn): 1.92 ± 0.047

Variant: C134F
- sfGFP reporter fluorescence [1]: 0.081 ± 0.001
- sfGFP reporter fluorescence ([2]; ligand: 1 µM Pb): 0.202 ± 0.01
- sfGFP reporter fluorescence ([2]; ligand: 30 µM Zn): 1.32 ± 0.51

Variant: C134K
- sfGFP reporter fluorescence [1]: 0.0742 ± 0.00078
- sfGFP reporter fluorescence ([2]; ligand: 1 µM Pb): 0.0891 ± 0.0021
- sfGFP reporter fluorescence ([2]; ligand: 30 µM Zn): 1.71 ± 0.084

Variant: C134M
- sfGFP reporter fluorescence [1]: 0.0693 ± 0.001
- sfGFP reporter fluorescence ([2]; ligand: 1 µM Pb): 0.09162 ± 0.00052
- sfGFP reporter fluorescence ([2]; ligand: 30 µM Zn): 1.28 ± 0.065

Variant: C134I
- sfGFP reporter fluorescence [1]: 0.0678 ± 0.001
- sfGFP reporter fluorescence ([2]; ligand: 1 µM Pb): 0.113 ± 0.0044
- sfGFP reporter fluorescence ([2]; ligand: 30 µM Zn): 1.19 ± 0.11

Variant: G128K
- sfGFP reporter fluorescence [1]: 0.122 ± 0.0031
- sfGFP reporter fluorescence ([2]; ligand: 1 µM Pb): 0.192 ± 0.007
- sfGFP reporter fluorescence ([2]; ligand: 30 µM Zn): 3.05 ± 0.22

Variant: G128F
- sfGFP reporter fluorescence [1]: 0.0671 ± 0.0047
- sfGFP reporter fluorescence ([2]; ligand: 1 µM Pb): 0.199 ± 0.023
- sfGFP reporter fluorescence ([2]; ligand: 30 µM Zn): 1.2 ± 0.12

Variant: G128A
- sfGFP reporter fluorescence [1]: 0.09694 ± 0.00026
- sfGFP reporter fluorescence ([2]; ligand: 1 µM Pb): 0.211 ± 0.0065
- sfGFP reporter fluorescence ([2]; ligand: 30 µM Zn): 2.53 ± 0.17

Variant: G128I
- sfGFP reporter fluorescence [1]: 0.066 ± 0.0021
- sfGFP reporter fluorescence ([2]; ligand: 1 µM Pb): 0.183 ± 0.015
- sfGFP reporter fluorescence ([2]; ligand: 30 µM Zn): 1.68 ± 0.19

Variant: G128T
- sfGFP reporter fluorescence [1]: 0.0647 ± 0.0018
- sfGFP reporter fluorescence ([2]; ligand: 1 µM Pb): 0.0885 ± 0.014
- sfGFP reporter fluorescence ([2]; ligand: 30 µM Zn): 1.21 ± 0.22

Variant: G128W
- sfGFP reporter fluorescence [1]: 0.07165 ± 0.00026
- sfGFP reporter fluorescence ([2]; ligand: 1 µM Pb): 0.248 ± 0.028
- sfGFP reporter fluorescence ([2]; ligand: 30 µM Zn): 1.39 ± 0.098

Variant: G128D
- sfGFP reporter fluorescence [1]: 0.0603 ± 0.0023
- sfGFP reporter fluorescence ([2]; ligand: 1 µM Pb): 0.0607 ± 0.00078
- sfGFP reporter fluorescence ([2]; ligand: 30 µM Zn): 0.108 ± 0.0029

Variant: G128Y
- sfGFP reporter fluorescence [1]: 0.0755
- sfGFP reporter fluorescence ([2]; ligand: 1 µM Pb): 0.203 ± 0.018
- sfGFP reporter fluorescence ([2]; ligand: 30 µM Zn): 1.37 ± 0.067

Variant: G128S
- sfGFP reporter fluorescence [1]: 0.0649 ± 0.0036
- sfGFP reporter fluorescence ([2]; ligand: 1 µM Pb): 0.0902 ± 0.0083
- sfGFP reporter fluorescence ([2]; ligand: 30 µM Zn): 1.3 ± 0.14

Variant: G128L
- sfGFP reporter fluorescence [1]: 0.0715 ± 0.0031
- sfGFP reporter fluorescence ([2]; ligand: 1 µM Pb): 0.203 ± 0.03
- sfGFP reporter fluorescence ([2]; ligand: 30 µM Zn): 2.04 ± 0.21

Variant: G128M
- sfGFP reporter fluorescence [1]: 0.105 ± 0.0062
- sfGFP reporter fluorescence ([2]; ligand: 1 µM Pb): 0.311 ± 0.025
- sfGFP reporter fluorescence ([2]; ligand: 30 µM Zn): 3.04 ± 0.38

Variant: G128H
- sfGFP reporter fluorescence [1]: 0.0608 ± 0.0021
- sfGFP reporter fluorescence ([2]; ligand: 1 µM Pb): 0.0848 ± 0.0034
- sfGFP reporter fluorescence ([2]; ligand: 30 µM Zn): 0.25 ± 0.012

Variant: G128Q
- sfGFP reporter fluorescence [1]: 0.06982 ± 0.00026
- sfGFP reporter fluorescence ([2]; ligand: 1 µM Pb): 0.117 ± 0.0026
- sfGFP reporter fluorescence ([2]; ligand: 30 µM Zn): 2.05 ± 0.43

Variant: G128V
- sfGFP reporter fluorescence [1]: 0.0647 ± 0.00078
- sfGFP reporter fluorescence ([2]; ligand: 1 µM Pb): 0.131 ± 0.011
- sfGFP reporter fluorescence ([2]; ligand: 30 µM Zn): 1.54 ± 0.16

Variant: G128P
- sfGFP reporter fluorescence [1]: 0.05498 ± 0.00052
- sfGFP reporter fluorescence ([2]; ligand: 1 µM Pb): 0.0568 ± 0.001
- sfGFP reporter fluorescence ([2]; ligand: 30 µM Zn): 0.0535 ± 0.001

Variant: G128C
- sfGFP reporter fluorescence [1]: 0.0629 ± 0.0018
- sfGFP reporter fluorescence ([2]; ligand: 1 µM Pb): 0.0964 ± 0.0036
- sfGFP reporter fluorescence ([2]; ligand: 30 µM Zn): 0.16 ± 0.008

Variant: G128R
- sfGFP reporter fluorescence [1]: 0.161 ± 0.007
- sfGFP reporter fluorescence ([2]; ligand: 1 µM Pb): 0.316 ± 0.038
- sfGFP reporter fluorescence ([2]; ligand: 30 µM Zn): 3.05 ± 0.31

Variant: G128N
- sfGFP reporter fluorescence [1]: 0.0614 ± 0.0023
- sfGFP reporter fluorescence ([2]; ligand: 1 µM Pb): 0.0704 ± 0.0042
- sfGFP reporter fluorescence ([2]; ligand: 30 µM Zn): 0.875 ± 0.093

Variant: G128E
- sfGFP reporter fluorescence [1]: 0.0599 ± 0.00078
- sfGFP reporter fluorescence ([2]; ligand: 1 µM Pb): 0.0713 ± 0.0013
- sfGFP reporter fluorescence ([2]; ligand: 30 µM Zn): 0.535 ± 0.051

Variant: T139A
- sfGFP reporter fluorescence [1]: 0.0616 ± 0.0015
- sfGFP reporter fluorescence ([2]; ligand: 1 µM Pb): 0.0737 ± 0.0036
- sfGFP reporter fluorescence ([2]; ligand: 30 µM Zn): 0.7601 ± 0.0031

Variant: T136A
- sfGFP reporter fluorescence [1]: 0.0601 ± 0.001
- sfGFP reporter fluorescence ([2]; ligand: 1 µM Pb): 0.0696 ± 0.0031
- sfGFP reporter fluorescence ([2]; ligand: 30 µM Zn): 0.668 ± 0.013

Variant: L129S
- sfGFP reporter fluorescence [1]: 0.0577 ± 0.0013
- sfGFP reporter fluorescence ([2]; ligand: 1 µM Pb): 0.05901 ± 0.00052
- sfGFP reporter fluorescence ([2]; ligand: 30 µM Zn): 0.0563 ± 0.00078

Variant: L129N
- sfGFP reporter fluorescence [1]: 0.0586 ± 0.0015
- sfGFP reporter fluorescence ([2]; ligand: 1 µM Pb): 0.05827 ± 0.00052
- sfGFP reporter fluorescence ([2]; ligand: 30 µM Zn): 0.0535 ± 0.0036

Variant: L129I
- sfGFP reporter fluorescence [1]: 0.0535 ± 0.0021
- sfGFP reporter fluorescence ([2]; ligand: 1 µM Pb): 0.0592 ± 0.0013
- sfGFP reporter fluorescence ([2]; ligand: 30 µM Zn): 0.163 ± 0.012

Variant: L129K
- sfGFP reporter fluorescence [1]: 0.0581 ± 0.00078
- sfGFP reporter fluorescence ([2]; ligand: 1 µM Pb): 0.059 ± 0.0021
- sfGFP reporter fluorescence ([2]; ligand: 30 µM Zn): 0.05662 ± 0.00026

Variant: L129T
- sfGFP reporter fluorescence [1]: 0.05827 ± 0.00052
- sfGFP reporter fluorescence ([2]; ligand: 1 µM Pb): 0.0581 ± 0.00078
- sfGFP reporter fluorescence ([2]; ligand: 30 µM Zn): 0.055 ± 0.0021

Variant: L129C
- sfGFP reporter fluorescence [1]: 0.0561 ± 0.0015
- sfGFP reporter fluorescence ([2]; ligand: 1 µM Pb): 0.05791 ± 0.00052
- sfGFP reporter fluorescence ([2]; ligand: 30 µM Zn): 0.05443 ± 0.00026
